# Tests used:
# [1] = biological target: T1, SARS-CoV-2 spike protein receptor binding domain (RBD2) (SARS-CoV-2, UniProt P0DTC2 319-537); assay: SPR
# [2] = biological target: T1, SARS-CoV-2 spike protein receptor …; assay: SPR, immobilized antibody, RBD injected, 1:1 fit
# [3] = biological target: SARS-CoV spike protein receptor binding domain (RBD1) (SARS-CoV, UniProt P59594 306-527); assay: ELISA, crude human minibody
Binder,Kd [1] [nM],Kd [2] [nM],binding result [3]
B04 minibody (scFv-Fc) (Fc fusion) SYVLTQPPSVSVAPGKTARITCGGNNIGIRSVHWYQQKPGQAPVLVIYYDSDRPSGIPERFSGSKSGNTATLTISRVEAGDEADYYCQVWDSSSDHPVFGGGTKLTVLSGGSTITSYNVYYTKLSSSGTQVQLVESGAEVKKPGASVKVSCKASGYTFTRYYMHWVRQAPGQGLEWMGIINPSGGTTSYAQKFQGRVTMTRDTSTSTVYMELSSLRSEDTAVYYCARSFGELTSFDYWGQGTLVTVSS,56.8,56.8,
R09 minibody (scFv-Fc) (Fc fusion) QPGLTQPPSVSVSPGQTASITCSGDKLGYKYVSWYQQKPGQSPVLVIYEDTKRPSGIPKRFSGSNSGNTATLTICGTQAVDEADYYCQAWDSSVVFGGGTKLTVLSGGSTITSYNVYDTKLSSSGTQVQLVQSGAEVKKPGASVKVSCKASGYTFTSYGISWVRQAPGQGLEWMGWISAYNGNTNYAQKFQGRVTMTTDTSTSTAYMELRSLRSDDTAVYYCARDMELRPPFDYWGQGTLVTVSS,,539,
H02 minibody (scFv-Fc) (Fc fusion) QSVVTQPPSVSAAPGQKVTISCSGSSSNIGNNYVSWYQQLPGTAPKLLIYRDTQRPSGVPDRFSGSKSGTSASLAISGLRSEDEADYYCATWDKSLSGPVFGGGTKVTVLSGGSTITSYNVYYTKLSSSGTQVQLQQSGPGLVKPSQTLSLTCAISGDSVSSNSAAWNWIRQSPSRGLEWLGRTYYRSKWYNDYAVSVKSRIIINPDTSKNQFSLQLNSVTPEDTAVYYCARQDNNPYYGLDVWGQGTTVTVSS,,15.5,
D04 minibody (scFv-Fc) (Fc fusion) SYVLTQPPSVSVAPGKTARITCGGNNIGWKSVHWYQQKPGQAPVLVVYNDNDRPSGVPERFSGSNSGNTATLTISRVVAGDEADYYCQVWDSSSDHVLFGGGTKLTVLSGGSTITSYNVYYTKLSSSGTQVQLVQSGAEVKKPGSSVKVSCKASGGTFSSYAISWVRQAPGQGLEWMGGIIPIFGTANYAQKFQGRVTITADESTSTAYMELSSLRSEDTAVYYCARASGRWLQFWHYYGMDVWGQGTTVTVS,,124,
D11 minibody (scFv-Fc) (Fc fusion) SYELTQPPSVSVAPGQTARITCGGNNIGSKSVHWYQQKPGQAPVLVVYDDSDRPSGIPERFSGSNSGNTATLTISGTQAMDEADYYCQAWDSSTAYVFGSGTKLTVLSGGSTITSYNVYYTKLSSSGTQVQLEESGGGLVQPGGSLRLSCAASGFTFSNYAMSWVRQAPGKGLEWVSAISGSGGATFHADSVKGRFTISRDNSKNTLYLQMNSLRAEDTAVYYCARRVGYDSSGYYWSDAFDIWGQGTMVTVSS,,798,
R04 minibody (scFv-Fc) (Fc fusion) EIVMTQSPSSLSASVGDRVTITCQASQDISNYLNWCQQKPGKAPKLLIYDASNLETGVPSRFSGSGSGTGFTFTISSLQPEDFATYYCQQSYSTPYTFGQGTKVEIKSGGSTITSYNVNYTKLSSSGAQVQLQQSGPGLVKSSQTLSLTCAISGDSVSSNGAAWHWIRQSPSRGLEWLGRTYYRSGWYNDYAVSVKSRITINQDTSKNQFSLQLNSVTPEDTAVYFCAREGGGGRMDVWSQGTTVTVSS,128,128,
H01 human minibody (scFv-human Fc) (Fc fusion) scFv-Fc: QPGLTQPPSVSLAPGQTARITCGGNNIGSKSVHWYQQKPGQAPVLVVYDDSDRPSGIPERFSGSNAGNTATLTISRVEAGDEADYYCQVWDSRSDQYVFGTRTKLTVLSGGSTITSYNVYYTKLSSSGAQVTLKESGPVLVKPTETLTLTCTVSGFSLSNARMGVSWIRQPPGKALEWLAHIFSNGEKSYSTSLKSRLTISKDTSKSQVVLTMTNMDPVDTATYYCARTLDYYDSSGYLVGGAFDIWGQGTMVTVSS,,,no binding
D07 minibody (scFv-Fc) (Fc fusion) SYELTQPPSVSVAPGETARMTCGGNNIGTKGVHWYQQKPGQAPVLVVYDDSDRPSGIPERFSGSNAGNTATLTISRVEAGDEADYYCQVWDSRSDQYVFGTRTKLTVLSGGSTITSYNVYYTKLSSSGAQVTLKESGPVLVKPTETLTLTCTVSGFSLSNARMGVSWIRQPPGKALEWLAHIFSNGEKSYSTSLKSRLTISKDTSKSQVVLTMTNMDPVDTATYYCARTLDYYDSSGYLVGGAFDIWGQGTMVTVSS,,134,
H01 minibody (scFv-Fc) (Fc fusion) QPGLTQPPSVSLAPGQTARITCGGNNIGSKSVHWYQQKPGQAPVLVVYDDSDRPSGIPERFSGSNAGNTATLTISRVEAGDEADYYCQVWDSRSDQYVFGTRTKLTVLSGGSTITSYNVYYTKLSSSGAQVTLKESGPVLVKPTETLTLTCTVSGFSLSNARMGVSWIRQPPGKALEWLAHIFSNGEKSYSTSLKSRLTISKDTSKSQVVLTMTNMDPVDTATYYCARTLDYYDSSGYLVGGAFDIWGQGTMVTVSS,281,281,
"R04 IgG1 (antibody, V domains shown) VH: QVQLQQSGPGLVKSSQTLSLTCAISGDSVSSNGAAWHWIRQSPSRGLEWLGRTYYRSGWYNDYAVSVKSRITINQDTSKNQFSLQLNSVTPEDTAVYFCAREGGGGRMDVWSQGTTVTVSS VL: EIVMTQSPSSLSASVGDRVTITCQASQDISNYLNWCQQKPGKAPKLLIYDASNLETGVPSRFSGSGSGTGFTFTISSLQPEDFATYYCQQSYSTPYTFGQGTKVEIK",190000,190000,
E08 human minibody (scFv-human Fc) (Fc fusion) scFv-Fc: SYVLTQPPSVSVAPGKTARITCGGNNIGWKSVHWYQQKPGQAPVLVVYDDSDRPSGIPERFSGSNSGNTATLTISRVEAGDEADYYCQVWDSSSDLVVFGGGTKLTVLSGGSTITSYNVYYTKLSSSGTQVQLVQSGAEVKKPGSSVKVSCKASGGTFSSYAISWVRQAPGQGLEWMGGIIPIFGTANYAQKFQGRVTITADESTSTAYMELSSLRSEDTAVYYCARASGRWLQFWHYYGMDVWGQGTTVTVSS,,,binds
H03 minibody (scFv-Fc) (Fc fusion) SYELTQPPSVSVAPGQTARITCGGNNIGSKSVHWYQQKPGQAPVLVIYYDSDRPSGIPERFSGSNSGNTATLTISRVEAGDEADYYCQVWDSSSALYVFGTRTKVTVLSGGSTITSYNVYYTKLSSSGTQVQLVESGGGLVQPGRSLRLSCAASGFTFDDYAMHWVRQAPGKGLEWVSGISWNSGSIGYADSVKGRFTISRDNAKNSLYLQVNSLRAEDTAVYYCARELIVGTTSPQTDAFDIWGQGTMVTVSS,,117,
G07 minibody (scFv-Fc) (Fc fusion) QSVLIQPPSASGTPGQRVTISCSGSNSNFGSNSVSWYQQRPGTAPKLLIEGNNQRPSGVPERFSGSKSGTSASLAISGLQSEDEAEYSCASWDDSLNAFVFGPGTKLTVLSGGSAITSYNVYYTKLSSSGTQVQLVQSGAEVKKPGESLKISCKGSGYSFTSYWIGWVRQMPGKGLEWMGIIYPGDSDIRYSPSFQGQVTISADKSFSSAYLQWSSLKASDTAMYYCARLGATGAFDIWGQGTTVTVSS,63900,,
B10 minibody (scFv-Fc) (Fc fusion) QSVVTQPPSVSGAPGQRVTISCTGSSSNIGSRTVNWYQQLPGTAPKLLIYANNQRPSGVPDRFSGSKSGTSASLAISGLQSEDEADYYCAAWDDSLNGYVFGTGTKLTVLSGGSTITSYNVYYTKLSSSGTQVQLQQSGPGLVKPSQTLSLTCAISGDSVSSNSATWNWIRQSPSRGLEWLGRTYYGSKWHSDYAVSVKSRITINPDTSKNQISLHLNPVTPEDTAVYYCARGRSYAFDIWDQGTMVTVSS,,344,

# — patent US12018066 (TRIAD NATIONAL SECURITY, dated 2024)
